Data: paper PMC5825165, “EAT1 transcription factor, a non-cell-autonomous regulator of pollen production, activates meiotic small RNA biogenesis in rice anther tapetum” (PLoS Genetics, 2018)

T1: UDT1-nYFP (UNDEVELOPED TAPETUM1 fused with the N-terminal split of YFP) (rice (japonica cv. Nipponbare), UniProt B9FXT3 1-234)
T1 sequence (looked up): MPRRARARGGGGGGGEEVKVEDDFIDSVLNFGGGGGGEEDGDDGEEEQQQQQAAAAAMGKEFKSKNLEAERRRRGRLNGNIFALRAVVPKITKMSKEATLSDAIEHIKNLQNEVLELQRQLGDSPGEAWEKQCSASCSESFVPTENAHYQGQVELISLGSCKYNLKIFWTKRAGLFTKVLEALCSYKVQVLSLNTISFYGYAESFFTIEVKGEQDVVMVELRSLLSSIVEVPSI


Biological target: T1, UDT1-nYFP (UNDEVELOPED TAPETUM1 fused …)
Experiment: cell-based or functional assay

Row | Binder | transient expression assay in rice protoplasts: firefly Luciferase activity of the 24-PHAS chr5-20 promoter on EAT1-UDT1 cotransfection (untagged effectors), fold against the no effector control | transient expression assay in rice protoplasts: firefly Luciferase activity of the 24-PHAS chr6-97 promoter on EAT1-UDT1 cotransfection (untagged effectors), fold against the no effector control | transient expression assay in rice protoplasts: firefly Luciferase activity of the EAT1 promoter (pEAT1) on EAT1-UDT1 cotransfection (untagged effectors) | transient expression assay in rice protoplasts: firefly Luciferase activity of the 24-PHAS chr5-20 promoter on TIP2-UDT1 cotransfection (untagged effectors) | transient expression assay in rice protoplasts: firefly Luciferase activity of the 24-PHAS chr6-97 promoter on TIP2-UDT1 cotransfection (untagged effectors) | transient expression assay in rice protoplasts: firefly Luciferase activity of the DCL5 promoter (pDCL5) on TIP2-UDT1 cotransfection (untagged effectors) | transient expression assay in rice protoplasts: firefly Luciferase activity of the EAT1 promoter (pEAT1) on TIP2-UDT1 cotransfection (untagged effectors)
1 | EAT1-cYFP (ETERNAL TAPETUM1 fused with the C-terminal split of YFP) (natural protein, rice (japonica cv. Nipponbare), UniProt Q7X8R0 1-464, looked up) MIVGAGYFEDSHDQSLMAGSLIHDSNQAPASSENTSIDLQKFKVHPYSTEALSNTANLAEAARAINHLQHQLEIDLEQEVPPVETANWDPAICTIPDHIINHQFSEDPQNILVEQQIQQYDSALYPNGVYTPAPDLLNLMQCTMAPAFPATTSVFGDTTLNGTNYLDLNGELTGVAAVPDSGSGLMFASDSALQLGYHGTQSHLIKDICHSLPQNYGLFPSEDERDVIIGVGSGDLFQEIDDRQFDSVLECRRGKGEFGKGKGKANFATERERREQLNVKFRTLRMLFPNPTKNDRASIVGDAIEYIDELNRTVKELKILVEQKRHGNNRRKVLKLDQEAAADGESSSMRPVRDDQDNQLHGAIRSSWVQRRSKECHVDVRIVDDEVNIKLTEKKKANSLLHAAKVLDEFQLELIHVVGGIIGDHHIFMFNTKVSEGSAVYACAVAKKLLQAVDVQHQALDIFN | 4.46 fold | 3.99 fold | 7.61 fold | – | – | – | –
2 | TIP2-cYFP (TDR INTERACTING PROTEIN2 fused with the C-terminal split of YFP) (natural protein, rice (japonica cv. Nipponbare), UniProt Q5JNS0 1-379, looked up) MYHPQCELLMPLESLEMDVGQSHLAAAVAAAMPGELNFHLLHSLDAAAAAASSTAASASSQPTVDYFFGGADQQPPPPAAMQYDQLAAPHHHQTVAMLRDYYGGHYPPAAAAAAATEAYFRGGPRTAGSSSLVFGPADDESAFMVGPFESSPTPRSGGGRKRSRATAGFHGGGPANGVEKKEKQRRLRLTEKYNALMLLIPNRTKEDRATVISDAIEYIQELGRTVEELTLLVEKKRRRREMQGDVVDAATSSVVAGMDQAAESSEGEVMAAAAMGAVAPPPRQAPIRSTYIQRRSKETFVDVRIVEDDVNIKLTKRRRDGCLAAASRALDDLRLDLVHLSGGKIGDCHIYMFNTKIHSGSPVFASAVASRLIEVVDEY | – | – | – | 8.63 fold | 2.73 fold | 4.91 fold | 5.72 fold
